In the supplement of paper PMC10126150:
± gives the standard deviation of the averaged measurements.
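Further: ATP exposure 15 min at 22 °C before imaging.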

The sequences below were run on ATP (assay: switch fluorescence ratio, 500 uM ATP over buffer (Cy3 cluster intensity, sum of 5 cycles each) (fold (ratio)); higher = stronger signal-on switching upon ATP binding; sequences stand for … in TCGTCGGCAGCGTCAGATGTGTATAAGAGACAGTTTTTTTTTTTTTTTTTTTTTTTTT…TC). Settings: aptamer strand: ATP DNA aptamer (quencher-CACCTGGGGGAGTATTGCGGAGGAAGG + anchor), 100 nM annealed; ATP concentration: 500 uM.
Outline: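 Between each of five buffer/ATP cycles, the flow-cell was stripped with NaOH and re-annealed. Each cycle imaged Cy3-labelled switching-strand clusters, annealed to 100 nM quencher-labelled ATP aptamer on a modified Illumina MiSeq flow-cell, first in selection buffer and then after 15 min with 500 uM ATP at 22 °C. The fluorescence ratio is summed target-cycle over summed buffer-cycle Cy3 intensity per cluster, averaged per switch-domain sequence, with clusters outside 100-1000 RFU excluded.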
CACCTACATG showed a switch fluorescence ratio of 1.21 ± 0.031. CGATGAATTC gave a switch fluorescence ratio of 1.07 ± 0.048. TTCGGATGGC gave a switch fluorescence ratio of 1.01 ± 0.084. ATTTCTGGGT showed a switch fluorescence ratio of 0.9885 ± 0.0082. Sequence TGATTATAGA has a switch fluorescence ratio of 0.983 ± 0.03. Sequence TTTGGTGGAA has a switch fluorescence ratio of 1.01 ± 0.044. AAGTCCTTGT gave a switch fluorescence ratio of 1.02 ± 0.013. Work on GGCTGTTTGG yielded a switch fluorescence ratio of 1 ± 0.012. TACGTCCCGG gave a switch fluorescence ratio of 1.08 ± 0.014. ATCCGTTTTG was tested, and the switch fluorescence ratio was 0.986 ± 0.02. ATATTACGGG showed a switch fluorescence ratio of 1.03 ± 0.039. Work on GGGATGGTTA yielded a switch fluorescence ratio of 0.971 ± 0.056. AAGTCCGGCA was tested, and the switch fluorescence ratio was 1 ± 0.037. AAGTCCGTTG gave a switch fluorescence ratio of 1.009 ± 0.0083. With CATTTTTGTG the switch fluorescence ratio was 0.9534 ± 0.0061. AGCAGAGGGA gave a switch fluorescence ratio of 1.01 ± 0.011. TCATAGTACG showed a switch fluorescence ratio of 1.02 ± 0.043. GTCGTAACAG showed a switch fluorescence ratio of 0.9857 ± 0.0047. ATTCGGCGGA showed a switch fluorescence ratio of 1.03 ± 0.068. AATTTACTGG was tested, and the switch fluorescence ratio was 1.13 ± 0.084. GTTTTTTAAT showed a switch fluorescence ratio of 1.015 ± 0.0061. Work on GAGGTTATCA yielded a switch fluorescence ratio of 1.01 ± 0.013. Work on GTGCTGGGCG yielded a switch fluorescence ratio of 0.994 ± 0.028. Work on TCGGTTTGGT yielded a switch fluorescence ratio of 1.01 ± 0.024. Work on ACCCTGGGGT yielded a switch fluorescence ratio of 2.14 ± 1.6. CCTAATGCAG showed a switch fluorescence ratio of 1.11 ± 0.049. In the case of TGTTGGGTGG, the switch fluorescence ratio is reported as 0.9948 ± 0.00021. ATAGGTTTGT showed a switch fluorescence ratio of 0.989 ± 0.013. CGCGGGCACT showed a switch fluorescence ratio of 1.04 ± 0.04. With GTTTGTAACG the switch fluorescence ratio was 1.02 ± 0.015. For ACATAATTGA, the switch fluorescence ratio was 1.03 ± 0.017. Sequence AACATTTCTT has a switch fluorescence ratio of 0.976 ± 0.045. With GTTTTAGTGG the switch fluorescence ratio was 0.9867 ± 0.0089. For CTAAGGTCTT, the switch fluorescence ratio was 1.07 ± 0.11. Work on TGAGGATACA yielded a switch fluorescence ratio of 1.016 ± 0.0029. CCGGGTTTTG showed a switch fluorescence ratio of 1.017 ± 0.0016. With GTTTATTCGC the switch fluorescence ratio was 0.998 ± 0.043. For TGATGGATAA, the switch fluorescence ratio was 1.01 ± 0.027. Sequence CGGACGAGAG has a switch fluorescence ratio of 0.998 ± 0.022. Work on AATTTTAACT yielded a switch fluorescence ratio of 1.022 ± 0.0064. For AATTTTTAAG, the switch fluorescence ratio was 0.997 ± 0.011. Work on AGGTCTACTA yielded a switch fluorescence ratio of 1.05 ± 0.059. For GCGGTTTGAG, the switch fluorescence ratio was 0.933 ± 0.012. With TAATGGGGGG the switch fluorescence ratio was 0.989 ± 0.037. Work on TTTGCAAACA yielded a switch fluorescence ratio of 1 ± 0.061. Sequence TGGATTTGGT has a switch fluorescence ratio of 0.988 ± 0.012. In the case of CCGGGCGACA, the switch fluorescence ratio is reported as 1.11 ± 0.031. In the case of GGGGCTTGGG, the switch fluorescence ratio is reported as 0.989 ± 0.043. In the case of TTAAGGACTT, the switch fluorescence ratio is reported as 1.01 ± 0.011. GCTTCGGAGT gave a switch fluorescence ratio of 1.059 ± 0.01. With AACAGAAAGG the switch fluorescence ratio was 0.982 ± 0.045. For TGATGCAGAA, the switch fluorescence ratio was 1.036 ± 0.0041. Sequence GGTCCTGGTT has a switch fluorescence ratio of 0.9859 ± 0.0021. Sequence GGTTCGGGAA has a switch fluorescence ratio of 0.9965 ± 0.0022. Sequence AACGGGTTAC has a switch fluorescence ratio of 1.14 ± 0.019. In the case of GCCTGGAGTA, the switch fluorescence ratio is reported as 1.03 ± 0.065. Sequence TAGGGCAACG has a switch fluorescence ratio of 1.04 ± 0.025. CTTTGGAGGT showed a switch fluorescence ratio of 0.985 ± 0.016. Work on GGGTGTTAGC yielded a switch fluorescence ratio of 1.02 ± 0.046. CTGGGCCGTC gave a switch fluorescence ratio of 1.01 ± 0.021. With GGATTGGTTG the switch fluorescence ratio was 0.999 ± 0.038. TTGGGGGCAT gave a switch fluorescence ratio of 1.02 ± 0.052. With CACCACGTGG the switch fluorescence ratio was 1.01 ± 0.018. For CCAGCCTTTT, the switch fluorescence ratio was 1.025 ± 0.0039. In the case of TTCAATTCAC, the switch fluorescence ratio is reported as 1.37 ± 0.41. Work on ACTGTTCCGA yielded a switch fluorescence ratio of 1.05 ± 0.054. AATGTGGGGT gave a switch fluorescence ratio of 0.995 ± 0.026. Sequence TTATAGGTCT has a switch fluorescence ratio of 1 ± 0.072. TGCGATTCG was tested, and the switch fluorescence ratio was 0.9931 ± 0.0076. TTTGCGGTGG showed a switch fluorescence ratio of 1.01 ± 0.075. For TGTCGGAGGG, the switch fluorescence ratio was 0.973 ± 0.065. TACCGAAGGG gave a switch fluorescence ratio of 0.989 ± 0.028. Sequence GGTTTACTG has a switch fluorescence ratio of 1.03 ± 0.035. CCCCTTGTGT gave a switch fluorescence ratio of 2.087 ± 0.015. Sequence TTTGAGTGTA has a switch fluorescence ratio of 0.969 ± 0.05. Work on TAGGTCATGG yielded a switch fluorescence ratio of 0.985 ± 0.011. With CCGGGAGGAT the switch fluorescence ratio was 0.987 ± 0.035. Work on GGAGGATGCT yielded a switch fluorescence ratio of 0.948 ± 0.053. Sequence GTAGCGGGGT has a switch fluorescence ratio of 1.006 ± 0.0054. In the case of ATCGGGAGAG, the switch fluorescence ratio is reported as 1.05 ± 0.026. AAGCGAGGTT was tested, and the switch fluorescence ratio was 0.991 ± 0.021. TGTGGTCGGT showed a switch fluorescence ratio of 1.015 ± 0.007. With TGGAAGTTAG the switch fluorescence ratio was 0.964 ± 0.029. Work on TTGTTGGTCC yielded a switch fluorescence ratio of 1.16 ± 0.25. Work on CGGGAGTAGG yielded a switch fluorescence ratio of 1.04 ± 0.041. Work on AGGGGGCCAG yielded a switch fluorescence ratio of 1 ± 0.019. For GTTGAGTTTT, the switch fluorescence ratio was 0.962 ± 0.03. ACTCGAGGTT was tested, and the switch fluorescence ratio was 1.05 ± 0.013. TATTTGGAAA gave a switch fluorescence ratio of 0.991 ± 0.036. In the case of CGAAATCGTG, the switch fluorescence ratio is reported as 0.9964 ± 0.0047. GTTGGCGAGT was tested, and the switch fluorescence ratio was 1.01 ± 0.032. Sequence TAATGGAAGG has a switch fluorescence ratio of 1 ± 0.024. For GGGCATTGTG, the switch fluorescence ratio was 1.03 ± 0.056. With AGTGTTTGGT the switch fluorescence ratio was 0.989 ± 0.021. CTCGCCGATA was tested, and the switch fluorescence ratio was 1.03 ± 0.031. GGGTGGTGTT gave a switch fluorescence ratio of 1.01 ± 0.021. For AAGAGATTTT, the switch fluorescence ratio was 0.986 ± 0.012. Sequence AGGGGGGCCG has a switch fluorescence ratio of 1.08 ± 0.019. Work on GGGGAAGGGA yielded a switch fluorescence ratio of 1 ± 0.031. CAATCGTAAA was tested, and the switch fluorescence ratio was 1.01 ± 0.02. With AGTCGGGCGC the switch fluorescence ratio was 0.983 ± 0.051. CAAAATATAT showed a switch fluorescence ratio of 1.06 ± 0.042. GGTCCGTCGT showed a switch fluorescence ratio of 1.02 ± 0.038. AAGGTATTGA showed a switch fluorescence ratio of 0.9782 ± 0.0046. GTGAGAGCTG showed a switch fluorescence ratio of 0.952 ± 0.015. TCAATTTTGT gave a switch fluorescence ratio of 0.997 ± 0.022. ATAGGATCTT was tested, and the switch fluorescence ratio was 0.996 ± 0.028. TCGGCAATGT gave a switch fluorescence ratio of 2.32 ± 1.6. GGGTTTCAGC gave a switch fluorescence ratio of 1 ± 0.053. In the case of CGCCGGCGGG, the switch fluorescence ratio is reported as 0.978 ± 0.034. ATTTAATAAT showed a switch fluorescence ratio of 0.985 ± 0.018. Work on ACATTAGTGG yielded a switch fluorescence ratio of 1.01 ± 0.01. GAGGGGTTTT was tested, and the switch fluorescence ratio was 1.01 ± 0.04. With AGGGTCTGTA the switch fluorescence ratio was 0.939 ± 0.015. CTAAAGTTGG showed a switch fluorescence ratio of 0.995 ± 0.02. Work on GACTGAGGTA yielded a switch fluorescence ratio of 0.99 ± 0.031. In the case of GAAGAAGGCT, the switch fluorescence ratio is reported as 0.89 ± 0.078. GCTTACGGTG gave a switch fluorescence ratio of 1.01 ± 0.02. TGGGTGGTCT gave a switch fluorescence ratio of 0.9972 ± 0.0054. ATGGTATAAC showed a switch fluorescence ratio of 1.01 ± 0.015. For CGTATCGTGG, the switch fluorescence ratio was 1.03 ± 0.031. For GGGTGGCCGT, the switch fluorescence ratio was 0.961 ± 0.029. TGGCATTTTT gave a switch fluorescence ratio of 0.991 ± 0.025. Work on GGGGGGGTT yielded a switch fluorescence ratio of 1 ± 0.025. TGACAGACAT gave a switch fluorescence ratio of 1.1 ± 0.027. TAAAGTGTGG gave a switch fluorescence ratio of 0.992 ± 0.027. Sequence ATAATGCAGG has a switch fluorescence ratio of 1 ± 0.032. TAAAGCCGGT gave a switch fluorescence ratio of 1.009 ± 0.0023. GAATCGGTAG showed a switch fluorescence ratio of 0.9783 ± 0.0013. For TGGAGTACGG, the switch fluorescence ratio was 1.008 ± 0.0036. With TGGTGCTTGT the switch fluorescence ratio was 1.02 ± 0.024. GAGAGAGGCT was tested, and the switch fluorescence ratio was 0.9988 ± 0.0071. GACGGGATTT gave a switch fluorescence ratio of 1.03 ± 0.03. TACGTCTTGG showed a switch fluorescence ratio of 1.04 ± 0.033. TTTAATATGT was tested, and the switch fluorescence ratio was 0.968 ± 0.024. ACGTATATTG was tested, and the switch fluorescence ratio was 1.058 ± 0.0052. GTGGATGCGG gave a switch fluorescence ratio of 0.962 ± 0.038. AGGGCAAACG was tested, and the switch fluorescence ratio was 1.05 ± 0.0075. Work on GGATTACTCT yielded a switch fluorescence ratio of 1.0308 ± 0.00015. Sequence AGTAGGCCTA has a switch fluorescence ratio of 1.04 ± 0.025. For AGATGTCGTT, the switch fluorescence ratio was 0.997 ± 0.039. For TGGCGGGGCA, the switch fluorescence ratio was 0.998 ± 0.035. With TTTGCGAGCG the switch fluorescence ratio was 1.01 ± 0.023. Work on CATAGGATCG yielded a switch fluorescence ratio of 0.949 ± 0.038. GTTCTCCTT gave a switch fluorescence ratio of 1.07 ± 0.1. With TTCGGTACTG the switch fluorescence ratio was 1.01 ± 0.033. In the case of TGGGGTATTA, the switch fluorescence ratio is reported as 0.998 ± 0.018. In the case of TTACCTTTTT, the switch fluorescence ratio is reported as 1.02 ± 0.013. In the case of TATAAATAGT, the switch fluorescence ratio is reported as 0.96 ± 0.046. With ACCGCTATGT the switch fluorescence ratio was 1.57 ± 0.019. AATGTTGGAG was tested, and the switch fluorescence ratio was 0.985 ± 0.028. With GACGCGTTTA the switch fluorescence ratio was 1.07 ± 0.034. ACGTTTACCA showed a switch fluorescence ratio of 1.217 ± 0.0099. GGATGGGTGG was tested, and the switch fluorescence ratio was 0.99 ± 0.025. CAGGCCGTAT showed a switch fluorescence ratio of 1.01 ± 0.016. Sequence GGGAATTGTT has a switch fluorescence ratio of 0.977 ± 0.014. GGTCTGGTTT gave a switch fluorescence ratio of 0.956 ± 0.013.
